This note sets out measurements from the supplement of paper PMC10567573.

Sequences and labels used below:
B1: C22orf15 (parent)
chain: PRGRAHLLPNPYQQDFLGLPEELR
B2: FEM1B (parent)
chain: TLAALLLNRSESDIRYLLGYVSQQ
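Also: lentivirally expressed fusions sorted by FACS into six bins by GFP to DsRed ratio, PSI derived from sequencing read proportions per bin multiplied by bin number.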

In the first series the parent is B1. As to the kind of experiment: protein stability index of a GFP-peptide fusion (GPS, HEK-293T) (PSI 1-6); higher = more stable. As to conditions: c terminus: a fixed tail appended.
With PRGRAHLLPNPYQQDFLGLPEELE, the protein stability index was found to be 4.17. The same measure, in the same setting: next, PRGRAHLLPNPYQQDFLGLPEELH: 3.3; PRGRAHLLPNPYQQDFLGLPEELG: 3.8. As to PRGRAHLLPNPYQQDFLGLPEELK, the protein stability index was found to be 4.12.

For PRGRAHLLPNPYQQDFLGLPEELM, the protein stability index was 2.97. The same measure, in the same setting: next, PRGRAHLLPNPYQQDFLGLPEELQ: 3.89. Still for that read-out and setting: next, PRGRAHLLPNPYQQDFLGLPEELL: 3.47. The same measure, in the same setting: with PRGRAHLLPNPYQQDFLGLPEELI the figure was 3.64; with PRGRAHLLPNPYQQDFLGLPEELW, 2.11; with PRGRAHLLPNPYQQDFLGLPEELY, 3.05.

With PRGRAHLLPNPYQQDFLGLPEELD, the protein stability index was 4.3. On to PRGRAHLLPNPYQQDFLGLPEELC, for which the protein stability index is 3.29. With PRGRAHLLPNPYQQDFLGLPEELN, the protein stability index stood at 3.94.

For the variant PRGRAHLLPNPYQQDFLGLPEELT, the protein stability index turned out to be 4.11. Consider PRGRAHLLPNPYQQDFLGLPEELF, for which the protein stability index came to 3.17.

On to PRGRAHLLPNPYQQDFLGLPEELS, for which the protein stability index was found to be 3.7. Take PRGRAHLLPNPYQQDFLGLPEELP: the protein stability index came out at 4.03. On the same count and under the same terms, next, PRGRAHLLPNPYQQDFLGLPEELV: 3.63; PRGRAHLLPNPYQQDFLGLPEELA: 3.05; PRGRAHLLPNPYQQDFLGLPEEWR: 3.45.

PRGRAHLLPNPYQQDFLGLPEEYR: the protein stability index amounted to 3.88.

Another series covers variants of B2. Described as above. As to conditions: c terminus: a fixed tail appended.
In the case of TLAALLLQRSESDIRYLLGYVSQQ, the protein stability index stood at 3.3. The same measure, in the same setting: with TLAALLLCRSESDIRYLLGYVSQQ the figure was 4.47. The same measure, in the same setting: next, TLAALLLMRSESDIRYLLGYVSQQ: 4.03; TLAALLLFRSESDIRYLLGYVSQQ: 2.45. Same read-out and setting: with TLAALLLGRSESDIRYLLGYVSQQ the figure was 2.04. As to TLAALLLRRSESDIRYLLGYVSQQ, the protein stability index turned out to be 3. With TLAALLLTRSESDIRYLLGYVSQQ, the protein stability index worked out at 2.38.

As to TLAALLLSRSESDIRYLLGYVSQQ, the protein stability index worked out at 2.67. Still for that read-out and setting: with TLAALLLDRSESDIRYLLGYVSQQ the figure was 3.63; with TLAALLLHRSESDIRYLLGYVSQQ, 2.92. Still for that read-out and setting: next, TLAALLLWRSESDIRYLLGYVSQQ: 4.75.

On to TLAALLLIRSESDIRYLLGYVSQQ, for which the protein stability index came to 1.53. Same read-out and setting: with TLAALLLARSESDIRYLLGYVSQQ the figure was 2.48; with TLAALLLKRSESDIRYLLGYVSQQ, 4.32. As for TLAALLGNRSESDIRYLLGYVSQQ, the protein stability index stood at 1.79. For TLAALLNNRSESDIRYLLGYVSQQ, the protein stability index was 1.95.

As for TLAALLSNRSESDIRYLLGYVSQQ, the protein stability index was found to be 1.31. On the same count and under the same terms, with TLAALLPNRSESDIRYLLGYVSQQ the figure was 1.3; with TLAALLCNRSESDIRYLLGYVSQQ, 2.03. As to TLAALLKNRSESDIRYLLGYVSQQ, the protein stability index came to 2.38. As for TLAALLYNRSESDIRYLLGYVSQQ, the protein stability index was determined as 1.28.

In the case of TLAALLQNRSESDIRYLLGYVSQQ, the protein stability index worked out at 1.79.

Regarding TLAALLENRSESDIRYLLGYVSQQ, the protein stability index amounted to 1.42. The same measure, in the same setting: with TLAALLDNRSESDIRYLLGYVSQQ the figure was 1.97.

For TLAALLHNRSESDIRYLLGYVSQQ, the protein stability index was 1.7. The same measure, in the same setting: with TLAALLFNRSESDIRYLLGYVSQQ the figure was 2.56. For TLAALLWNRSESDIRYLLGYVSQQ, the protein stability index is 2.28. With TLAALLRNRSESDIRYLLGYVSQQ, the protein stability index is 1.78. Still for that read-out and setting: with TLAALLMNRSESDIRYLLGYVSQQ the figure was 2.58. On the same count and under the same terms, with TLAALLANRSESDIRYLLGYVSQQ the figure was 2.03. On the same count and under the same terms, next, TLAILLLNRSESDIRYLLGYVSQQ: 2.37.

As for TLADLLLNRSESDIRYLLGYVSQQ, the protein stability index was found to be 2.37.

On to TLAKLLLNRSESDIRYLLGYVSQQ, for which the protein stability index was determined as 2.59.

TLAQLLLNRSESDIRYLLGYVSQQ: the protein stability index turned out to be 2.05.

For TLARLLLNRSESDIRYLLGYVSQQ, the protein stability index turned out to be 3.48. The same measure, in the same setting: next, TLAYLLLNRSESDIRYLLGYVSQQ: 3.38. Still for that read-out and setting: next, TLASLLLNRSESDIRYLLGYVSQQ: 3.29; TLAGLLLNRSESDIRYLLGYVSQQ: 1.68. As to TLACLLLNRSESDIRYLLGYVSQQ, the protein stability index is 2.3. The same measure, in the same setting: with TLAHLLLNRSESDIRYLLGYVSQQ the figure was 2.97.

For TLAELLLNRSESDIRYLLGYVSQQ, the protein stability index came to 2.94. Same read-out and setting: with TLAFLLLNRSESDIRYLLGYVSQQ the figure was 3.05. On the same count and under the same terms, next, TLAVLLLNRSESDIRYLLGYVSQQ: 2.42; TLANLLLNRSESDIRYLLGYVSQQ: 2.53. The same measure, in the same setting: next, TLAPLLLNRSESDIRYLLGYVSQQ: 2.09; TLAMLLLNRSESDIRYLLGYVSQQ: 1.5; TLATLLLNRSESDIRYLLGYVSQQ: 2.35.

Consider TLAWLLLNRSESDIRYLLGYVSQQ, for which the protein stability index worked out at 2.28. ILAALLLNRSESDIRYLLGYVSQQ: the protein stability index turned out to be 3.74. Same read-out and setting: next, ELAALLLNRSESDIRYLLGYVSQQ: 2.21. Still for that read-out and setting: next, GLAALLLNRSESDIRYLLGYVSQQ: 2.61; NLAALLLNRSESDIRYLLGYVSQQ: 2.8; PLAALLLNRSESDIRYLLGYVSQQ: 2.1. The same measure, in the same setting: with DLAALLLNRSESDIRYLLGYVSQQ the figure was 1.66. CLAALLLNRSESDIRYLLGYVSQQ: the protein stability index stood at 3.15.

LLAALLLNRSESDIRYLLGYVSQQ: the protein stability index amounted to 1.72.

On to SLAALLLNRSESDIRYLLGYVSQQ, for which the protein stability index came to 2.98. The same measure, in the same setting: with QLAALLLNRSESDIRYLLGYVSQQ the figure was 1.85. The same measure, in the same setting: next, KLAALLLNRSESDIRYLLGYVSQQ: 2.89; WLAALLLNRSESDIRYLLGYVSQQ: 1.93. The same measure, in the same setting: with YLAALLLNRSESDIRYLLGYVSQQ the figure was 3.91; with ALAALLLNRSESDIRYLLGYVSQQ, 2.5. With MLAALLLNRSESDIRYLLGYVSQQ, the protein stability index is 3.36. On the same count and under the same terms, with TLAALLLNGSESDIRYLLGYVSQQ the figure was 3.4; with TLAALLLNDSESDIRYLLGYVSQQ, 2.9; with TLAALLLNTSESDIRYLLGYVSQQ, 2.94. Take TLAALLLNFSESDIRYLLGYVSQQ: the protein stability index amounted to 2.9. On the same count and under the same terms, with TLAALLLNWSESDIRYLLGYVSQQ the figure was 2.79. On the same count and under the same terms, next, TLAALLLNHSESDIRYLLGYVSQQ: 1.58; TLAALLLNVSESDIRYLLGYVSQQ: 2.67; TLAALLLNCSESDIRYLLGYVSQQ: 2.13. Same read-out and setting: with TLAALLLNLSESDIRYLLGYVSQQ the figure was 3.24. Turning to TLAALLLNESESDIRYLLGYVSQQ, the protein stability index worked out at 1.98.
